Laboratory results taken from article PMC7242444, “Characterization of the zinc finger proteins ZMYM2 and ZMYM4 as novel B-MYB binding proteins” (Scientific Reports, 2020).

Target: T1, GFP-B-MYB (human, UniProt P10244 1-700)
T1 construct: B-MYB, human, full length, fused to eGFP; The truncated derivatives were cloned in peGFP-C1, 2 or 3, which would put GFP at the N-terminus; also called GFP/B-MYB fusion protein; peGFP-B-MYB; source: HEK293T, stably expressing (lentiviral) or transfected, in lysate
T1 sequence (looked up): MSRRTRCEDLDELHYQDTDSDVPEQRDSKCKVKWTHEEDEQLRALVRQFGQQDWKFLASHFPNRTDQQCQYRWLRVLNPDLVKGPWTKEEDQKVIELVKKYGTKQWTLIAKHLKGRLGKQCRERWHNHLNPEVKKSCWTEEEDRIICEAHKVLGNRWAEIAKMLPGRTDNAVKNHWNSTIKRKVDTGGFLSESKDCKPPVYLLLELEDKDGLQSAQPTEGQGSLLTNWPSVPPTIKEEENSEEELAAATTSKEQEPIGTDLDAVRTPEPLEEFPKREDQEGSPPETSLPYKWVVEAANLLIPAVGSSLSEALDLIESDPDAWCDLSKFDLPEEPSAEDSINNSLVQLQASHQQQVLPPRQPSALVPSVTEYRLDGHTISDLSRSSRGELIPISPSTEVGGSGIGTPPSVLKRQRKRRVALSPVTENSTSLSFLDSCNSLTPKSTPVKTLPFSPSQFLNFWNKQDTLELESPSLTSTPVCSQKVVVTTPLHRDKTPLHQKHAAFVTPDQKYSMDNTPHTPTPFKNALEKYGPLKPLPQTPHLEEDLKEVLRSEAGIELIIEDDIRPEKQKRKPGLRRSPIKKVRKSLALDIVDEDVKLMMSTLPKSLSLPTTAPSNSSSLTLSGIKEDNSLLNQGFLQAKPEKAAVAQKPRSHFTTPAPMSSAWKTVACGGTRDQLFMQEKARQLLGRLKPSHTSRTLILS
Assay: co-IP; GFP-trap beads, 3 h at 4 °C, extracts of HEK293T cells in ELB buffer (50 mM Tris/HCl pH 7.5, 120 mM NaCl, 0.2% NP-40) expressing the GFP fusion bait; Western blot of bound proteins; in Fig. 3 cells pre-incubated with 10 μM BrdU and irradiated or not with UV-C
Conditions: partners not purified

B1: zinc finger MYM-type protein 4 (ZMYM4), endogenous (natural protein, human (endogenous in HEK293T), UniProt Q5VZL5 1-1548, looked up)
chain: MAEREVESGPRKRFEQKSGAVFDEIVENCGGIMDTEMSEDIDHNLTPTLDSMSYGMPNQTGSENSLLDEDDYFLNSGDLAGIPVVGSDNEDEQDFSSKDNLVSSIHTDDSLEVERRVTQHESDNENEIQIQNKLKKDFPKQFDQVSVFKSIRKDFSLVRENSKETFSGKEKNRDLTYEREKRLDKPHKDLDSRLKSSFFDKAANQVEETLHTHLPQTPETNFRDSSYPFANKESIGSELGNSFASNIRIKEEPLDDEYDKAMAPQQGLLDKIKDEPDNAQEYSHGQQQKTQEGELKISAVFSVSGSPLAPQLTTGFQPSLASSGMNKMLPSVPATAVRVSCSGCKKILQKGQTAYQRKGSTQLFCSTLCLTGYTVPPARPPPPLTKKTCSSCSKDILNPKDVISAQFENTTTSKDFCSQSCLSTYELKKKPIVTINTNSISTKCSMCQKNAVIRHEVNYQNVVHKLCSDACFSKFRSANNLTMNCCENCGGYCYSGSGQCHMLQIEGQSKKFCSSSCITAYKQKSAKITPCALCKSLRSSAEMIENTNSLGKTELFCSVNCLSAYRVKMVTSAGVQVQCNSCKTSAIPQYHLAMSDGSIRNFCSYSCVVAFQNLFNKPTGMNSSVVPLSQGQVIVSIPTGSTVSAGGGSTSAVSPTSISSSAAAGLQRLAAQSQHVGFARSVVKLKCQHCNRLFATKPELLDYKGKMFQFCGKNCSDEYKKINNVMAMCEYCKIEKIVKETVRFSGADKSFCSEGCKLLYKHDLAKRWGNHCKMCSYCLQTSPKLVQNNLGGKVEEFCCEECMSKYTVLFYQMAKCDACKRQGKLSESLKWRGEMKHFCNLLCILMFCNQQSVCDPPSQNNAANISMVQAASAGPPSLRKDSTPVIANVVSLASAPAAQPTVNSNSVLQGAVPTVTAKIIGDASTQTDALKLPPSQPPRLLKNKALLCKPITQTKATSCKPHTQNKECQTEDTPSQPQIIVVPVPVPVFVPIPLHLYTQYAPVPFGIPVPMPVPMLIPSSMDSEDKVTESIEDIKEKLPTHPFEADLLEMAEMIAEDEEKKTLSQGESQTSEHELFLDTKIFEKDQGSTYSGDLESEAVSTPHSWEEELNHYALKSNAVQEADSELKQFSKGETEQDLEADFPSDSFDPLNKGQGIQARSRTRRRHRDGFPQPRRRGRKKSIVAVEPRSLIQGAFQGCSVSGMTLKYMYGVNAWKNWVQWKNAKEEQGDLKCGGVEQASSSPRSDPLGSTQDHALSQESSEPGCRVRSIKLKEDILSCTFAELSLGLCQFIQEVRRPNGEKYDPDSILYLCLGIQQYLFENGRIDNIFTEPYSRFMIELTKLLKIWEPTILPNGYMFSRIEEEHLWECKQLGAYSPIVLLNTLLFFNTKYFQLKNVTEHLKLSFAHVMRRTRTLKYSTKMTYLRFFPPLQKQESEPDKLTVGKRKRNEDDEVPVGVEMAENTDNPLRCPVRLYEFYLSKCSESVKQRNDVFYLQPERSCVPNSPMWYSTFPIDPGTLDTMLTRILMVREVHEELAKAKSEDSDVELSD
notes: ZMYM4 (zinc finger MYM-type protein 4), endogenous in HEK293T cells; In extracts made without NEM the protein is de-SUMOylated; also called endogenous ZMYM4; source: endogenous, HEK293T lysate
Question: B1 was tested. Which “fold increase of binding after UV irradiation (against non-irradiated cells, densitometry)” value did it give?
Answer: 4.1 fold
